We go through four molecules from patent publication US20250019422A1 (MAX PLANCK GESELLSCHAFT ZUR F RDERUNG DER WISSENSCHAFTEN E V, published 2025).

Like-named read-outs stand apart in the source and are kept apart here.

Experiment [1] addresses B.1.617.2/Delta.
Experiment [2] deals with T1, RBD of the SARS-CoV-2 Omicron variant BA.2.75 (SARS-CoV-2 Omicron variant BA.2.75).
Experiment [3] concerns the target B.1.617.2/Delta. The source holds these as a separate data set.
Experiment [4] concerns the target T1, RBD of the SARS-CoV-2 Omicron variant …. This is another data set of the same source.

B1: Re6H06 (VHH)
VHH: QVQLVESGGGLVQPGGSLRLSCAASGVTLDYYAIGWFRQAPGKEREGVSCTSSSDGSTYYADSVKGRFTISRDNAKNTVYLQMNSLKPEDTGVYYCAVVPQTYYGGKYYSQCTANGMDYWGKGTLVTVSS
The term Kd denotes the free concentration of one partner at which half of the binding sites on the other are occupied at equilibrium, for simple one-to-one binding. Lower therefore signals tighter binding. As for B1, the Kd with B.1.617.2/Delta [1] is 0.1 nM; in experiment [2] it was at least 1000 nM.

B2: Re9B09 (VHH)
VHH: QVQLVESGGGLVQPGGSLRLSCAASGFTLDYYAIGWFRQAPGKEREGVSRISSSDGSTDYADSVKGRFTISRDNAKNTVYLQMNSLKPEDTAVYYCATVPGTYYSGNWYYTWHPEAVDYWGKGTQVTVSS
notes: also called ReB09
B2: the results for the Kd (with B.1.617.2/Delta [3]; in experiment [4]) were 0.3 nM and 2 nM, respectively.

B3: Re5D06 (VHH)
VHH: QVQLVESGGGLVQPGGSLRLSCAASGITLDYYAIGWFRQAPGKEREGVSRIRSSDGSTNYADSVKGRFTMSRDNAKNTVYLQMNSLKPEDTAVYYCAYGPLTKYGSSWYWPYEYDYWGQGTQVTVSS
In the experiment with B.1.617.2/Delta [1], B3 had a Kd of 0.2 nM. In other words, the sub-nanomolar range.

B4: Re32D03 (VHH)
VHH: QVQLVESGGGLVQPGGSLRLSCAISGITLDYYAVGWFLQAPGKEREGISCMRNWDGRTVYAPSVKGRFTISSDNAKKMVYLEMDNLKSEDTGVYYCAAGPLPPGISCRIPTPLGYDDWGQGTQVTVSS
B4: the Kd with B.1.617.2/Delta [3] is at most 0.01 nM; in experiment [4] it was 0.35 nM.
